Test results taken from publication PMC12212259, “Evaluation of AlphaFold modeling for elucidation of nanobody–peptide epitope interactions” (The Journal of Biological Chemistry, 2025).

Experiments:
127-tag peptide = target: T1, 127-tag peptide (Homo sapiens CXCR2 (synthetic peptide)); experiment: SPR; biotinylated Nb (1 uM) captured on a streptavidin (SA) chip to about 2000 RU; peptide as analyte, 50 ul/min, 60 s contact, 120 s dissociation; 1X PBS pH 7.4 plus 0.05% P20; Biacore T200; 1:1 kinetics binding model, local fittings; conditions: both partners purified
T1 construct: numbers count on: the peptide; the printed residues Ser1', Phe2', Glu3', Phe5', Trp6', Lys7', Asp10' fit this; source: synthetic peptide
T1 chain: SFEDFWKGED

6E-WT peptide [1] = target: T2, 6E-WT peptide (Homo sapiens UBE2J1 (UBC6e; synthetic …, UniProt Q9Y385); experiment: as above; conditions: both partners purified
T2 construct: Leu at position 9; numbers count on: the peptide; the printed E5 and L9 fit this; also called 6E-L9 (WT); 6E peptide; source: synthetic peptide
T2 chain: QADQEAKELARQIS

6E-WT peptide [2] = target: T2, 6E-WT peptide; experiment: flow cytometry on cells; competition: HEK293 cells stably expressing A2AR-Nb6E-ALFA with unlabeled variant 6E peptides (10–0.01 uM) and 10 nM FAM-6E-C14 for 30 m in 2% BSA in PBS; antifluorescein antibody-AF647; median fluorescence intensity; conditions: one partner purified

B1: Nb127–biotin (VHH)
VHH: EVQLVESGGGLVQAGESLRLSCAASGSTFDFKVMGWYRQPPGKQREGVAAIRLSGNMHYAESVKGRFAISKANAKNTVYLQMNSLRPEDTAVYYCKVNIRGQDYWGQGTQVTVSS
notes: as the chain of m1; Sortagging probably removes the His6 tag; also called biotinylated Nb127; source: bacterial expression (pET26b, pelB), purified; labelled by sortagging (Sortase 5M), Ni-NTA and PD10
B1 showed a Kd (127-tag peptide) of 14 nM.

B2: Nb6E-biotin (VHH)
VHH: QVQLQESGGGLVQPGGSLRLSCAASGFVFENSAMAWYRQAPGKERELIAVIGTTFIKLAESVKGRFTISRDNAKSTVYLQMNNLKPEDTAVYYCSKSGAYWGQGTQVTVSS
notes: as the chain of m13; Sortagging probably removes the His6 tag; also called biotinylated Nb6E; source: bacterial expression (pET26b, pelB), purified; labelled by sortagging (Sortase 5M), Ni-NTA and PD10
B2: binds (6E-WT peptide [1]).

B3: A2AR-Nb6E-ALFA (VHH)
VHH: B2 VHH
notes: as the chain of m13 (Nb6E); also called cell surface protein fused with Nb6E; source: HEK293 cells, stably expressing, on cells
B3: binds (6E-WT peptide [2]).
